# Source: publication PMC6429324
# Tests used:
# [1] = tested on: bevacizumab (Avastin) (humanized IgG (organism not stated)); assay: bead pull-down, HT-RPLC of eluate; details: 10 ug/mL in human plasma, 5'-biotin, Plasma samples diluted 10x in 175 mM trehalose, 42 mM NaH2PO4, 8 mM Na2HPO4, 0.4% Tween-20, pH 7.4, 0.1% peptone, room temperature, 1 h, bead comparison: beads …
# [2] = tested on: bevacizumab (Avastin) (humanized IgG (organism not stated)); assay: bead pull-down, HT-RPLC of residual solution; details: 50 ug/mL bevacizumab, Plasma samples diluted 10x in 175 mM trehalose, 42 mM NaH2PO4, 8 mM Na2HPO4, 0.4% Tween-20, pH 7.4, 0.1% peptone, room temperature, 1 h, bead comparison: beads …; for fraction of antibody not captured (% not captured): immobilization effect, 5'-aminohexyl
Sequence,binding signal ([1]; first use of beads) [% recovery],binding signal ([1]; third use of beads) [% recovery],"binding signal ([2]; streptavidin beads, 5'-biotin) [% captured]",fraction of antibody not captured (% not captured) ([2]; carboxylic acid beads),fraction of antibody not captured (% not captured) ([2]; tosylactivated beads)
"GCGGTTGGTGGTAGTTACGTTCGC [anti-bevacizumab DNA aptamer, 5'-biotin]",101,97.3,> 99.8,–,–
"GCGGTTGGTGGTAGTTACGTTCGC [anti-bevacizumab DNA aptamer, 5'-aminohexyl]",–,–,–,85.5,75.8
